Assay results as given in patent US5972636A (priority 1997, dated 1999).
“Also recorded” adds a separate entry of the source.

Assays:
[1] = tested on: fraction II (ATP-dependent degradative system); experiment: Hydrolysis of Ub-125I-lysozyme by muscle fraction II; type: biochemical, rabbit
Description: All enzymatic assays were linear, except where noted (see below). When present, ATP was 2 mM in assays. Unless otherwise stated, in all assays, 50 μl aliquots of the fraction from the column or of the purified protease (10 μg)were incubated in 200 μl containing 50 mM TRIS-HCl (pH 7.8), 10 mM MgCl2, 1 mM DTT, and 5 μg of the radioactive proteins, 0.5 μg of Ub-conjugates, or 0.5 mM of the fluorogenic peptide. For assays of proteolysis, the reaction mixtures contained approximately 15,000 cpm of Ub-lysozyme or labeled proteins. Degradation of ^125 I-lysozyme, Ub-^125 I-lysozyme, ^14 C-casein, ^14 C-hemoglobin and OH/O2^- treated ^14 C-hemoglobin were assayed by measuring the production of acid-soluble radioactivity after 60 min of incubation at 37° C. Ub-^125 I-lysozyme was prepared using liver fraction II, according to the method of Hough and Rechsteiner. Hough et al., J. Biol. Chem. 261:2400-2408 (1986), Hough, R. and Rechsteiner, M. J. Biol. Chem. 261:2391-2399 (1986). ^125 I-lysozyme and Ub were prepared as described previously. Waxman et al., J. Biol. Chem. 262:2451-2457 (1987), Fagan et al., BioChem. J. 243:335-343 (1987). The concentration of conjugates was calculated based on the specific radioactivity of the ^125 I-lysxozyme used for conjugate synthesis. One unit of sLLVT-MCA represents 10 nmol of MCA produced in 30 min. […]

[2] = tested on: denervated soleus; type: cell-based, rat
[3] = tested on: 1500 kDa complex (proteasome-multipain)
[4] = tested on: proteasome-multipain complex formation; type: biochemical, rabbit
[5] = tested on: new protease (multipain) from skeletal muscle
[6] = molecular target: T1, proteasome from skeletal muscle (Oryctolagus cuniculus, UniProt G1T4Q9); type: biochemical, rabbit
T1 construct: from tissue; host or cells: rabbit skeletal (psoas) muscle, proteasome fraction after Mono Q and Superose 6

[7] = tested on: Ub-lysozyme conjugates; experiment: Degradation of Ub-lysozyme conjugates in 1st and 2nd hour with additions at 60 min; type: biochemical, rabbit; conditions: substance added at 60 min, cystatin 4 μM

For `Nc1ncnc2c1ncn2[C@@H]1O[C@H](COP(=O)(O)CP(=O)(O)OP(=O)(O)O)[C@@H](O)[C@H]1O` [AMP-CPP], the “effect on degradation of Ub-conjugated proteins by fraction II, in words” value [1] was “did not stimulate the degradation of Ub-conjugated proteins”.

For `CN` [Methylamine], the “Myofibrillar Proteins 3-Methylhistidine Release” value ([2]; None = 5.11 ± 0.21, as E65) was 5.05 ± 0.19 pmol/mg/2h and the “Total Proteins Tyrosine Release” value ([2]; soleus three days after section of the sciatic nerve, None = 328 ± 10, methylamine 10 μM, E64c 50 μM, dinitrophenol 0.1 mM, 2-deoxyglucose 5 mM) was 330 ± 11 pmol/mg/2h.

`Nc1ncnc2c1ncn2[C@@H]1O[C@H](COP(=O)(O)OP(=O)(O)NP(=O)(O)O)[C@@H](O)[C@H]1O` [AMP-PNP, adenyl 5'-oyl-imidodiphosphate] was tested, and the “effect on degradation of Ub-conjugated proteins by fraction II, in words” value [1] was “did not stimulate the degradation of Ub-conjugated proteins”, the “effect of nucleotides on Ub-125I-lysozyme hydrolysis by the complex, in words” value ([3]; Table VIII) was “No stimulation” and the “Realtive Activity (%) Complex, Ub-lysozyme degradation” value ([3]; Table VIII, None = 100, 2 mM of the nucleotide or 10 mM PPi) was 109%. For the same molecule, the “effect on formation of the proteasome-multipain complex, in words” value [4] was “completely prevented complex formation”, the “effect of nucleotides on Ub-125I-lysozyme hydrolysis by the purified enzyme, in words” value ([5]; Table III) was “No stimulation” and the “Relative activity (%), degradation of Ub-125I-lysozyme by the new activity” value ([5]; Table III, None = 100, 2 mM of the nucleotides or 10 mM PPi, 37° C. 1 hour) was 90%.

B1: Cystatin A: egg-white cystatin, a potent inhibitor of many papain-like thiol proteinases (protein, UniProt P01040 1-98, looked up)
Cystatin-A: MIPGGLSEAKPATPEIQEIVDKVKPQLEEKTNETYGKLEAVQYKTQVVAGTNYYIKVRAGDNKYMHLKVFKSLPGQNEDLVLTGYQVDKNKDDELTGF
With B1 the “Realtive Activity (%) Complex (Ub-125I-Lysozyme)” value [3] was 35%, the “inhibition of conjugate breakdown by the complex” value [3] was 65% and the “effect on formation of the proteasome-multipain complex, in words” value [4] was “did not occur; also recorded: blocked”. For the same molecule, the “Realtive Activity (%) Multipain” value [5] was 30%, the “Relative activity (%) NEW PROTEASE OH/O2 - treated hemoglobin” value [5] was 27% and the “Relative activity (%) NEW PROTEASE Ub-lysozyme” value [5] was 30%. For the same molecule, the “Relative activity (%) NEW PROTEASE lysozyme” value [5] was 24%, the Ki ([5]; read-out: Ki, inhibition of proteolysis by multipain) was under 1000 nM and the “Realtive Activity (%) Proteasome (sLLVT-MCA)” value [6] was 93%. For the same molecule, the “Relative activity (%) […]-MCA” value [6] was 93%, the “Degradation in 2nd hour” value ([7]; Complex added initially, None = 65) was 18 ng and the “Degradation in 2nd hour” value ([7]; Multipain added initially, None = 74) was 4 ng.
